The values below come from publication PMC3511050 (FEBS letters, 2012).

The target in one assay is SufE (Escherichia coli) (UniProt P76194). Kind of assay: SPR. The conditions noted are these: cited from earlier work.
A further assay deals with T1, SufE (E. coli), P76194.
T1 chain: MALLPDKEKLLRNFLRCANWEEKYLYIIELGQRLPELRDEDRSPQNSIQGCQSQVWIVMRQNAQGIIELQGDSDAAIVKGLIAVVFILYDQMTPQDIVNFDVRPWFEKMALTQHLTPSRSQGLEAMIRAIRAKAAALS
Kind of assay: cross-linking. The conditions noted are these: remark: other sources report otherwise.

The target in assay [1] is T2, SufS cysteine desulfurase (E. coli, UniProt P77444 1-406).
T2 sequence (looked up): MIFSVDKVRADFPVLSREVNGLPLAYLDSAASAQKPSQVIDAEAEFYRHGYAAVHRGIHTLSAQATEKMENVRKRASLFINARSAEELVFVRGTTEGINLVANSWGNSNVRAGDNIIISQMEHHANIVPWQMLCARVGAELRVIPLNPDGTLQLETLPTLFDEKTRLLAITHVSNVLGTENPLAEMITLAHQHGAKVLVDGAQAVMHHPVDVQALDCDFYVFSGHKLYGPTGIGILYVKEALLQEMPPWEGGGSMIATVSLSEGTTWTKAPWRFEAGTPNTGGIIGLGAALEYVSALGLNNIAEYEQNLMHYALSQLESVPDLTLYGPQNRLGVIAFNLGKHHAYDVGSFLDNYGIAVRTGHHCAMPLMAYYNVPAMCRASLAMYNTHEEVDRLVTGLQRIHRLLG
Kind of assay: inhibition of enzyme activity.

On to SufS (from UniProt P77444), for which the Kd with SufE (Escherichia coli) was 360 nM.

B1: SufE, P76194 1-138 (natural protein)
chain: MALLPDKEKLLRNFLRCANWEEKYLYIIELGQRLPELRDEDRSPQNSIQGCQSQVWIVMRQNAQGIIELQGDSDAAIVKGLIAVVFILYDQMTPQDIVNFDVRPWFEKMALTQHLTPSRSQGLEAMIRAIRAKAAALS
In the assay with SufE (E. coli), P76194, B1 had a percent of total protein as disulfide-bonded homodimer (with or without H2O2) of 18% and a stoichiometry N of 2.

B2: SufE where C51 has been covalently blocked with iodoacetamide (natural protein, E. coli, UniProt P76194 1-138, looked up)
chain: MALLPDKEKLLRNFLRCANWEEKYLYIIELGQRLPELRDEDRSPQNSIQGCQSQVWIVMRQNAQGIIELQGDSDAAIVKGLIAVVFILYDQMTPQDIVNFDVRPWFEKMALTQHLTPSRSQGLEAMIRAIRAKAAALS
modifications: C51 covalently blocked with iodoacetamide
Molecule B2 returned a Ki in assay [1] of 190 nM.

One may read the Kd as the free concentration of one partner at which half of the binding sites on the other are occupied at equilibrium, for simple one-to-one binding. For orientation: stoichiometry N means a count of units in the complex or per binding partner. By Ki is commonly meant the equilibrium dissociation constant of an inhibitor or competing ligand from its target. A low value points to higher affinity.
